Data reported in PMC4358367, “Structural basis of diverse membrane target recognitions by ankyrins” (eLife, 2014).

T1: FITC-labeled AnkR_AS peptide
T1 chain: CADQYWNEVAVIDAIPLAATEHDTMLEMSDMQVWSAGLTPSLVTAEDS

T2: Nav1.2_ABD (ankyrin binding domain of Nav1.2, residues 1035–1129)
T2 chain: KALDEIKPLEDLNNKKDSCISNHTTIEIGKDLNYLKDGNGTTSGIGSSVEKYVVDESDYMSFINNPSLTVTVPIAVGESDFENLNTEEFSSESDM

T3: Nfasc_ABD (28-residue fragment of the neurofascin cytoplasmic tail, residues 1187–1214)
T3 chain: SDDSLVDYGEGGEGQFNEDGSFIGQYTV


Columns and labels:
[1] = biological target: T1, FITC-labeled AnkR_AS peptide; assay: fluorescence polarisation; conditions: chain shown with the change
[2] = biological target: T2, Nav1.2_ABD (ankyrin binding domain of …); assay: ITC; conditions: chain shown with the change
[3] = biological target: T2, Nav1.2_ABD (ankyrin binding domain of …); assay: ITC; conditions: chain shown with the change
[4] = biological target: T3, Nfasc_ABD (28-residue fragment of the …); assay: ITC; conditions: chain shown with the change;; parent: 0.21 ± 0.02
[5] = biological target: T2, Nav1.2_ABD (ankyrin binding domain of …); assay: ITC; conditions: chain shown with the change

Kd [1] [µM] | Kd [2] [µM] | Kd [3] [µM] | Kd [4] [µM] | Kd [5] [µM] | Binder
2.7 | – | – | – | – | AnkB_repeats (24 ANK repeats of human 220 kDa ankyrin-B, residues 28–873), Q01484 F131Q; F164Q (protein) KSDSNASFLRAARAGNLDKVVEYLKGGIDINTCNQNGLNALHLAAKEGHVGLVQELLGRGSSVDSATKKGNTALHIASLAGQAEVVKVLVKEGANINAQSQNGQTPLYMAAQENHIDVVKYLLENGANQSTATEDGQTPLAVALQQGHNQAVAILLENDTKGKVRLPALHIAARKDDTKSAALLLQNDHNADVQSKMMVNRTTESGFTPLHIAAHYGNVNVATLLLNRGAAVDFTARNGITPLHVASKRGNTNMVKLLLDRGGQIDAKTRDGLTPLHCAARSGHDQVVELLLERGAPLLARTKNGLSPLHMAAQGDHVECVKHLLQHKAPVDDVTLDYLTALHVAAHCGHYRVTKLLLDKRANPNARALNGFTPLHIACKKNRIKVMELLVKYGASIQAITESGLTPIHVAAFMGHLNIVLLLLQNGASPDVTNIRGETALHMAARAGQVEVVRCLLRNGALVDARAREEQTPLHIASRLGKTEIVQLLLQHMAHPDAATTNGYTPLHISAREGQVDVASVLLEAGAAHSLATKKGFTPLHVAAKYGSLDVAKLLLQRRAAADSAGKNGLTPLHVAAHYDNQKVALLLLEKGASPHATAKNGYTPLHIAAKKNQMQIASTLLNYGAETNIVTKQGVTPLHLASQEGHTDMVTLLLDKGANIHMSTKSGLTSLHLAAQEDKVNVADILTKHGADQDAHTKLGYTPLIVACHYGNVKMVNFLLKQGANVNAKTKNGYTPLHQAAQQGHTHIINVLLQHGAKPNATTANGNTALAIAKRLGYISVVDTLKVVTEEVTTTTTTITEKHKLNVPETMTEVLDVSDEEGDDTMTGDGGEYLRPEDLKELGDD
– | 6.6 | 6.6 | – | – | AnkG_repeats (24 ANK repeats of rat 190 kDa ankyrin-G, residues 38–855), O70511 F131Q; F164Q (protein) KSDANASYLRAARAGHLEKALDYIKNGVDVNICNQNGLNALHLASKEGHVEVVSELLQREANVDAATKKGNTALHIASLAGQAEVVKVLVTNGANVNAQSQNGQTPLYMAAQENHLEVVRFLLDNGASQSLATEDGQTPLAVALQQGHDQVVSLLLENDTKGKVRLPALHIAARKDDTKAAALLLQNDTNADIESKMVVNRATESGFTPLHIAAHYGNINVATLLLNRAAAVDFTARNDITPLHVASKRGNANMVKLLLDRGAKIDAKTRDGLTPLHCGARSGHEQVVEMLLDRAAPILSKTKNGLSPLHMATQGDHLNCVQLLLQHNVPVDDVTNDYLTALHVAAHCGHYKVAKVLLDKKANPNAKALNGFTPLHIACKKNRIRVMELLLKHGASIQAVTESGLTPIHVAAFMGHVNIVSQLMHHGASPNTTNVRGETALHMAARSGQAEVVRYLVQDGAQVEAKAKDDQTPLHISARLGKADIVQQLLQQGASPNAATTSGYTPLHLSAREGHEDVAAFLLDHGASLSITTKKGFTPLHVAAKYGKLEVASLLLQKSASPDAAGKSGLTPLHVAAHYDNQKVALLLLDQGASPHAAAKNGYTPLHIAAKKNQMDIATSLLEYGADANAVTRQGIASVHLAAQEGHVDMVSLLLSRNANVNLSNKSGLTPLHLAAQEDRVNVAEVLVNQGAHVDAQTKMGYTPLHVGCHYGNIKIVNFLLQHSAKVNAKTKNGYTPLHQAAQQGHTHIINVLLQNNASPNELTVNGNTALAIARRLGYISVVDTLKVVTEEIMTTTTITEKHKMNVPETMNEVLDMS
– | 1.1 | – | 6 | 1.1 | AnkG_repeats (24 ANK repeats of rat 190 kDa ankyrin-G, residues 38–855), O70511 L366Q; F399Q; L432Q (protein) KSDANASYLRAARAGHLEKALDYIKNGVDVNICNQNGLNALHLASKEGHVEVVSELLQREANVDAATKKGNTALHIASLAGQAEVVKVLVTNGANVNAQSQNGFTPLYMAAQENHLEVVRFLLDNGASQSLATEDGFTPLAVALQQGHDQVVSLLLENDTKGKVRLPALHIAARKDDTKAAALLLQNDTNADIESKMVVNRATESGFTPLHIAAHYGNINVATLLLNRAAAVDFTARNDITPLHVASKRGNANMVKLLLDRGAKIDAKTRDGLTPLHCGARSGHEQVVEMLLDRAAPILSKTKNGLSPLHMATQGDHLNCVQLLLQHNVPVDDVTNDYQTALHVAAHCGHYKVAKVLLDKKANPNAKALNGQTPLHIACKKNRIRVMELLLKHGASIQAVTESGQTPIHVAAFMGHVNIVSQLMHHGASPNTTNVRGETALHMAARSGQAEVVRYLVQDGAQVEAKAKDDQTPLHISARLGKADIVQQLLQQGASPNAATTSGYTPLHLSAREGHEDVAAFLLDHGASLSITTKKGFTPLHVAAKYGKLEVASLLLQKSASPDAAGKSGLTPLHVAAHYDNQKVALLLLDQGASPHAAAKNGYTPLHIAAKKNQMDIATSLLEYGADANAVTRQGIASVHLAAQEGHVDMVSLLLSRNANVNLSNKSGLTPLHLAAQEDRVNVAEVLVNQGAHVDAQTKMGYTPLHVGCHYGNIKIVNFLLQHSAKVNAKTKNGYTPLHQAAQQGHTHIINVLLQNNASPNELTVNGNTALAIARRLGYISVVDTLKVVTEEIMTTTTITEKHKMNVPETMNEVLDMS
